Paper PMC8844045, “Dynamic FMR1 granule phase switch instructed by m6A modification contributes to maternal RNA decay”

B1: mixed GGACU/AGACU/GAACU probe, m6A (ssRNA)
RNA: GGGGACUAGACUGAACUGGGACUAGACUGAACUGGGACUAGACUGAACUGUAC
modifications: all A = m6A (m6ATP)
B2: mixed GGACU/AGACU/GAACU probe, unmodified (ssRNA)
RNA: B1 RNA
B3: AGACU (9x), m6A (ssRNA)
RNA: GGGAGACUAGACUAGACUGAGACUAGACUAGACUGAGACUAGACUAGACUGUAC
modifications: all A = m6A (m6ATP)

Assays:
[1] = molecular target: T1, FMR1 (MBP fusion) (UniProt Q9NFU0 1-684); assay: SPR; EMSA: 10 mM HEPES pH 7.4, 50 mM KCl, 1 mM DTT (printed DDT), 1 mM EDTA, 0.05% Triton X-100, 5% glycerol, 10 ng/ul salmon DNA, 25 C, then 0.2% glutaraldehyde; SPR: 20 mM HEPES pH 7.4, 150 mM KCl, 1.5 mM MgCl2, 0.1% NP40, 25 C; pull-down: 10 mM Tris-HCl pH 7.5, 150 mM KCl, 1.5 mM MgCl2, 0.1% NP-40, 0.5 mM DTT, 4 C; conditions: protein: recombinant; label: biotin-16-UTP
T1 sequence (Q9NFU0 whole entry, the tested form may be a part): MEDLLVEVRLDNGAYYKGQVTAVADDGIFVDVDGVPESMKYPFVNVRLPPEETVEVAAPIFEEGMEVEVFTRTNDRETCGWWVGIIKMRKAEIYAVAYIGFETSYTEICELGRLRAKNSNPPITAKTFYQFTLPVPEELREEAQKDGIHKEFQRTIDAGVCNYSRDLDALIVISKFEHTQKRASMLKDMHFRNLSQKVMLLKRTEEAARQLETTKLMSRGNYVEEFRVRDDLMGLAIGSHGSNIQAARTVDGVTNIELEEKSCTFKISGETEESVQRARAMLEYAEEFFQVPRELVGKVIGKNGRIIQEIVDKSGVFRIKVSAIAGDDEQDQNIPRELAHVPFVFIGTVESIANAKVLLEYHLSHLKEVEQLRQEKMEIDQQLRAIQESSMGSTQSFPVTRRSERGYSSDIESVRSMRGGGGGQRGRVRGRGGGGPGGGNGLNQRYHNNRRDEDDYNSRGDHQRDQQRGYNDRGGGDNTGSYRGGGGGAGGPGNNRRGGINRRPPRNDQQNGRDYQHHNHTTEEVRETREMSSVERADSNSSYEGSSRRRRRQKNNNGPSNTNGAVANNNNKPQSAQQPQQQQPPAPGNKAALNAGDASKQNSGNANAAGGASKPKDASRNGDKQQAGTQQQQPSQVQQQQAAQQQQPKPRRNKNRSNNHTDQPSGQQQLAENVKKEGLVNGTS

[2] = molecular target: T1, FMR1 (MBP fusion); assay: EMSA; EMSA: 10 mM HEPES pH 7.4, 50 mM KCl, 1 mM DTT (printed DDT), 1 mM EDTA, 0.05% Triton X-100, 5% glycerol, 10 ng/ul salmon DNA, 25 C, then 0.2% glutaraldehyde; SPR: 20 mM HEPES pH 7.4, 150 mM KCl, 1.5 mM MgCl2, 0.1% NP40, 25 C; pull-down: 10 mM Tris-HCl pH 7.5, 150 mM KCl, 1.5 mM MgCl2, 0.1% NP-40, 0.5 mM DTT, 4 C; conditions: protein: recombinant; label: biotin-16-UTP

Binder | Kd [1] [nM] | binding result [2]
B1 | 80.7 | 
B2 | 3600 | 
B3 |  | binds
